B1: Protein root UVB sensitive 1, chloroplastic (Arabidopsis thaliana (Mouse-ear cress)), Q7X6P3 (parent)
chain: MSCSYLLSGDASVVASRRWSDVSSRQRLFLPRQSLRQPSGSSFSRCVRLVANVNDHFSKQSLATRNCLASVFSADLGGSNGNNDNGNGGGGGGDGGGDNSDDSSFDLRYLCFLLLGLSCFFHFRLSAASAIAKDQNSDSNGDAVKETVWEVRGSKRKRLVPDFVKDEFVSEESAFELSSSLTPENLLAQCRNLLTQFLLPEGFPNSVTSDYLDYSLWRGVQGIASQISGVLATQSLLYAVGLGKGAIPTAAAINWVLKDGIGYLSKIMLSKYGRHFDVHPKGWRLFADLLENAAFGMEMLTPVFPQFFVMIGAAAGAGRSAAALIQAATRSCFNAGFASQRNFAEVIAKGEAQGMVSKSVGILLGIVVANCIGTSTSLALAAFGVVTTIHMYTNLKSYQCIQLRTLNPYRASLVFSEYLISGQAPLIKEVNDEEPLFPTVRFSNMKSPEKLQDFVLSSEAKAAAADIEERLQLGSKLSDVIHNKEEAIALFDLYRNEGYILTEHKGRFCVMLKESSTPQDMLRSLFQVNYLYWLEKNAGIEPASTYSDCKPGGRLHISLDYVRREFEHAKEDSESVGWVTEGLIARPLPTRIRLGHDRELLLSSPNSS
partner: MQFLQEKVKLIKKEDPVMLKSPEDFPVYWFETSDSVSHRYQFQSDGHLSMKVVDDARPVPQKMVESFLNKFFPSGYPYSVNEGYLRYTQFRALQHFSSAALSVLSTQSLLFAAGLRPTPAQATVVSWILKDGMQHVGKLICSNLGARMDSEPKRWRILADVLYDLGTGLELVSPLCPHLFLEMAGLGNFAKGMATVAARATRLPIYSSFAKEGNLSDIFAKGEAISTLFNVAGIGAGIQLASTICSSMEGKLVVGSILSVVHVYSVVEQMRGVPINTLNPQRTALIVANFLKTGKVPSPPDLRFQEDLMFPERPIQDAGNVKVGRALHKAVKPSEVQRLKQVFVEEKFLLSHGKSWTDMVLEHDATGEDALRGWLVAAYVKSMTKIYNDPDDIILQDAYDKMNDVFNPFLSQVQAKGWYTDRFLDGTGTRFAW

Variants of: B1
Conditions: with rus2_arath RUS2, Q9SJX7

| effect of a mutation on the interaction | Variant |
| --- | --- |
| disrupting interaction | K349G |
| disrupting interaction | K281G |
| decreasing interaction | E298G |
| decreasing interaction | N342G |

Reference: IntAct's records for PubMed 19515790
